Source: the nanobody polyreactivity screen of Harvey et al. (2022)

experiment: yeast display, Sf9 membrane polyspecificity reagent, FACS + sequencing; frameworks hold sequencing errors
In short: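 Sorting gates, low and high (top ~1%), were placed on anti-HA fluorescence to track expression and on streptavidin fluorescence to track reagent binding. A clone's polyreactivity label is taken from the gate it came out of. The reagent was 10% biotinylated, detergent-solubilized Sf9 membrane, applied for 1 hour at 4 °C to galactose-induced yeast display cells.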

Sequence | polyreactivity (PSR sort gate)
QVQLVESGGCLVQAGGSLRLSCAASGIIFYYYAMGWSRQAPGKEREFVAGIRWSSGSTYYADSVKGRFTISRDNAKNTVYLQMNSLKPEDTAVYYCAAAYLSWYGGYYYWGQGSQVTVSS | low polyreactivity
QVQLVESGGCLVQAGGSLRLSCAASGITFPGNAMGWYRPATGKERELVAVIRKSGTSTYYADSVKGRFTISRDNAKNTVYLQMISLIPEDTAVYYCAAGGPSTLDDYWGHGTQVTVSS | low polyreactivity
QVQLVESGGCLVQAGGSLRLSCAASGITYLEYAMGWYIQAPGKERELVATINSGGSTNYADSVKGRFTISRDNAKNTVYLQMNSLKPEDTAVYYCAAVVSDYVWRYEYWGQGTQVTVSS | low polyreactivity
QVQLVESGGCLVQAGGSLRLSCAASGLIFAEYAMGWYRQAPGKERELVARITSGGSTDYADSVKGRFTISRDNAKNTVFLQMNSLKPEDTAVYYCAAAYAYWGQGTQVTVSS | low polyreactivity
QVQLVESGGCLVQAGGSLRLSCAASGLIFLGYAMGWYRQAPGKERELVASIRTGGSTSYADSVKGRFTISRDNAKNTVYLQMYSLKPEDTAVYYCAADRGRPNLPGDYWGQGTQVTVSS | low polyreactivity
QVQLVESGGCLVQAGGSLRLSCAASGLTFRGYAKGWYRPAPGKERELVAAITSSAGRTNYADSVKGRFTISRDNAKNTVYLQMNSLNPEDTAVYYCAAAHSYTTRWGYYKFNYWGQGTQVSVSS | high polyreactivity
QVQLVESGGCLVQAGGSLRLSCAASGLTFSRYAMGWYRQAPGKERELVASSSQGGGSTYYADSVKGRFTISRDNAKITVYFQMNSLIPEDTAVYYCAASWYYSLQRYGYWGQGTQETVSS | high polyreactivity
QVQLVESGGCLVQAGGSLRLSCAASGNTFRRNVMGWYRQAPGKERELVPAINRGGSTTYADSVKGRFTISRDNAMNTVYLQMNSLKPEDTAVYYCNAEKRGQSYRFDYWGQGSQVTVSS | high polyreactivity
QVQLVESGGCLVQAGGSLRLSCAASGRIFAYNAMGWYRQAPGKESELVAAITRGGSTNYADSVKGRFTISRDNAKNTVYLQMNSLKPEDTAVYYCAARRVDTRVHVRYRYYYWGQGTQVTVSS | high polyreactivity
QVQLVESGGCLVQAGGSLRLSCAASGRIFHSNAMGWYRQAPGKERELVAAISTAGSTYYADSVKGRFTISRDNAKNTVYLQMNSLKPEDTAVYYCNAESPWWWEYDSWGQGTQVTVSS | high polyreactivity
QVQLVESGGCLVQAGGSLRLSCAASGRIFVYYAMGWYRQAPGKERELVAGISLSGGSTYYADSVKGRFTISRDNAKNTVYLQMYSLKPEDTAVYDSAIEVNAGYYVWYDYWGQGTQVTVSS | low polyreactivity
QVQLVESGGCLVQAGGSLRLSCAASGRSFRLYAMGGYRQAPGKERELVAAITRGGRTNYADSVKGRFTISRDNAKNTVYLQMNSLKPEDTAVYYCAARYVERHTDYYYWGQGTQVTVSS | low polyreactivity
QVQLVESGGCLVQAGGSLRLSCAASGRTFDVYAMGWYRQAPGKERELVATIRSDGSTTYADSVKGRFTISRDNAKNTVYLQMNSLKPEDTAVYYCAADFRSGFSSSTTPVQSDWGQGTQVTVSS | low polyreactivity
QVQLVESGGCLVQAGGSLRLSCAASGRTFLANAMGWYRQAPGKERELVAAITWSGGRTNYADSVKGRFTISRDNAKNTVYLQMNSLKPEDTAVYYCAADIFYEQVVGGTDVGYHDFDYWGQGTQVTVSS | low polyreactivity
QVQLVESGGCLVQAGGSLRLSCAASGRTFYFYTMGWYRQAPGKERQLVATIRWSAGSTYYADSVKGRFTISRDNAKNTVYLQMNSLKPEDTAVYYCNADPYVYSSWQYGYWGQGTQVTVSS | high polyreactivity
QVQLVESGGCLVQAGGSLRLSCAASGSIFDGNTMGWYRQAPGKERELVAAITWSGGSTYYADSVKGRFTISRDNAKNTVYLQMNSLKPEDTAVYYCAAEYWDSDPYDYWGQGTQVTVSS | low polyreactivity
QVQLVESGGCLVQAGGSLRLSCAASGSIFKWYAMGWYRQAPGKERELVAAITRGGSTNYADSVQGRFTISRDNAKNTVYLQMNSLKPEDTAVYYCNAVYTYRSGFGYWGQGTQVTVSS | low polyreactivity
QVQLVESGGCLVQAGGSLRLSCAASGSIFPPYAMGWYIPAPGKERELVAAISRRGGSTYYADSVKGRFTISRDNAKNTVYLQMNSLKPEDTAVYYCAARGGQMEYWGQGTQVTVSS | high polyreactivity
QVQLVESGGCLVQAGGSLRLSCAASGSIFPWYAMGWYRQAPGKERELVADISYSGSGTYYADSVKGRFAISRDNGKNNVYLQMTSLKPEDSAVYYCNAQRAEWYPVGRYEYWGQGSQVTVSS | low polyreactivity
QVQLVESGGCLVQAGGSLRLSCAASGSIFRYYAMGWYRQAPGKDRELVAAISWSSGRTYYADSVKGRFTISRDNAKNTVYLQMNSLKPEDTAVYYCAAGVPGYPRYEYDYWGQGTQVTVSS | high polyreactivity
QVQLVESGGCLVQAGGSLRLSCAASGSIFSANAMGWYRQAPGKETELVAAITRGGSTNYADSVKGRFTIARDNAKNTVYLQMNSLKPEDTAVYYCNDEPDPYSSGRVRRDYDYWGQGTQVTVSS | low polyreactivity
QVQLVESGGCLVQAGGSLRLSCAASGSIFVSYAMGWYRQAPGTERELVAAITGRTGSTYYADSVKGRFTISRDNAQNTVYLQMNSLKPEDTEVYYCAARHKPHHRYDYWGQGTQVTVSS | low polyreactivity
QVQLVESGGCLVQAGGSLRLSCAASGSIFYSYAMGWYRQAPGKEMELVADISSDGSTNYADSVKGRFTISRDNAKNTVYLQMNSLKPEDTAVYYCAKKPSSARYVTIGFDYWGQGTQVTVSS | low polyreactivity
QVQLVESGGCLVQAGGSLRLSCAASGSTFDYYMGWYRQAPGKERELVAAITYSGGSTYYADSVKGRFTISRDNAKNSVYLQMNSLNPEDTAVYYCAKDRSTFDDFYSNYYWGQGTQVTVSS | low polyreactivity
QVQLVESGGCLVQAGGSLRLSCAASGSTFENYAMGWYRPAPGKERELVATISIDGRTNYADSVKGRFTISRDNAKNTVFLQMNSLKPEDTGVYYCAARPYWRHRYDYWGQGTQVTVSS | low polyreactivity
QVQLVESGGCLVQAGGSLRLSCAASGSTFFSYAMGWYRQAPGKESEFVAANTYSSGRTYYADSVKGRFTISRDNAKNTVYLQMHSLKAEDSAVYSCSTPGFVWGRGYDYWGQGTHVTVSS | high polyreactivity
QVQLVESGGCLVQAGGSLRLSCAASGSTFRGNDMGWYRQAPGKEREFVAAITVSGGSTYYADSVKGRFTISRDNAKNTVYLQMNSLKPDDTAVYFCDARYLRYSSKTIQNEDYWGLGTQVTVSS | high polyreactivity
QVQLVESGGCLVQAGGSLRLSCAASGSTFSWYTMGWYRQAPGKERELVAAITRGGTTYYADSVKGRFTISRDNAKNTVYLQMNSLKPEDSAVYYCAARYSRDVRMGYWGQGTQVTVSS | high polyreactivity
QVQLVESGGCLVQAGGSLRLSCAASGSTFVKIVMGWYRQAPGKERELVAGITRGGSTYYADSVKGRFTISRDNAKNTVYLQMNSLKPEDTPVYYCAKRYAWDRDYWGQGTQVTVSS | high polyreactivity
QVQLVESGGCLVQAGGSLRLSCAASGYIFGYNAMGWYRQAPGKERELVAAISYSGGSTYYADSVKGRFTISRDNAKNTVYLQMNSLKPVDTAVYYCAAGAKWIYHYYSSLQYGYWGQGTQVTVSS | high polyreactivity
